This is an account of results in patent US11135246B2, “Peptides and combination of peptides for use in immunotherapy against leukemias and other cancers” (Immatics Biotechnologies GmbH, priority 2017, dated 2021).

The first assay concerns CD8+ T cells. Description: In vitro T-cell priming assay (immunogenicity): repeated stimulation of CD8+ T cells with aAPCs loaded with peptide/MHC complexes and anti-CD28, pMHC multimer readout. Particulars: Table 10a; healthy donors; three stimulation cycles; HLA-A*02 (278), HLA-A*24 (279). The assay is classed as cell-based, human. Here is the method:
In order to obtain information regarding the immunogenicity of the TUMAPs of the present invention, the inventors performed investigations using an in vitro T-cell priming assay based on repeated stimulations of CD8+ T cells with artificial antigen presenting cells (aAPCs) loaded with peptide/MHC complexes and anti-CD28 antibody. […]
Generation of pMHC/anti-CD28 coated beads, T-cell stimulations and readout was performed in a highly defined in vitro system using four different pMHC molecules per stimulation condition and 8 different pMHC molecules per readout condition. […]
Stimulations were initiated in 96-well plates by co-incubating […] CD8+ T cells with 2×10^5 washed coated beads in 200 μl TCM supplemented with 5 ng/ml IL-12 (PromoCell) for 3 days at 37° C. […] For the pMHC multimer readout using 8 different pMHC molecules per condition, a two-dimensional combinatorial coding approach was used as previously described (Andersen et al., 2012) with minor modifications encompassing coupling to 5 different fluorochromes. […] Peptide specific cells were calculated as percentage of total CD8+ cells. […] In vitro priming of specific multimer+CD8+ lymphocytes was detected by comparing to negative control stimulations.
For the substance “279 (LYIDRPLPYL; listed as Homo sapiens) [compound 279]”, the “Wells positive [%]” value is reported as “++++ (>=70% = ++++)”.

For the substance “278 (YLDRKLLTL; listed as Homo sapiens) [compound 278]”, the “Wells positive [%]” value is given as “++++ (>=70% = ++++)”.

The next assay concerns the target HLA-A*02:01 (Homo sapiens, UniProt P04439, D140Y/D185E/D98H/E176V/E277Q/G131W/G231S/I119V/I121R/I166T/I218V/L300P/L318F/N151K/N90K/P208A/P217A/Q86G/Q94H/R138H/R169H/T345S). Description: MHC binding assay, UV-ligand exchange with β2m ELISA, HLA-A*02:01. Particulars: peptide exchange yield. An excerpt:
(§1) Candidate peptides for T cell based therapies according to the present invention were further tested for their MHC binding capacity (affinity). The individual peptide-MHC complexes were produced by UV-ligand exchange, where a UV-sensitive peptide is cleaved upon UV-irradiation, and exchanged with the peptide of interest as analyzed. Only peptide candidates that can effectively bind and stabilize the peptide-receptive MHC molecules prevent dissociation of the MHC complexes. To determine the yield of the exchange reaction, an ELISA was performed based on the detection of the light chain (β2m) of stabilized MHC complexes. The assay was performed as generally described in Rodenko et al. (Rodenko et al., 2006).
(§2) 96 well MAXISorp plates (NUNC) were coated over night with 2 ug/ml streptavidin in PBS at room temperature, washed 4× and blocked for 1 h at 37° C. in 2% BSA containing blocking buffer. Refolded HLA-A*02:01/MLA-001 monomers served as standards, covering the range of 15-500 ng/ml. Peptide-MHC monomers of the UV-exchange reaction were diluted 100-fold in blocking buffer. Samples were incubated for 1 h at 37° C., washed four times, incubated with 2 ug/ml HRP conjugated anti-β2m for 1 h at 37° C., washed again and detected with TMB solution that is stopped with […]. Absorption was measured at 450 nm. Candidate peptides that show a high exchange yield (preferably higher than 50%, most preferred higher than 75%) are generally preferred for a generation and production of antibodies or fragments thereof, and/or T cell receptors or fragments thereof, as they show sufficient avidity to the MHC molecules and prevent dissociation of the MHC complexes.
Regarding “24 (KLGPVAVSI; listed as Homo sapiens) [compound 24]”, the Peptide exchange entry is recorded as ““++++” (>75% = ++++)”.

“204 (FLLPKVQSIQL; listed as Homo sapiens) [compound 204]”: the Peptide exchange result is ““+++” (>50 = +++)”. Regarding “200 (VMLQINPKL; listed as Homo sapiens) [compound 200]”, the Peptide exchange result is on record as ““+++” (>50 = +++)”. Take “19 (SLFEGIYTI; listed as Homo sapiens) [compound 19]”: the Peptide exchange entry was ““++++” (>75% = ++++)”. For the substance “22 (ILHAQTLKI; listed as Homo sapiens) [compound 22]”, the Peptide exchange result was ““+++” (>50 = +++)”. For “203 (FLLPKVQSI; listed as Homo sapiens) [compound 203]”, the Peptide exchange entry is ““++++” (>75% = ++++)”. Regarding “207 (KLSDNILKL; listed as Homo sapiens) [compound 207]”, the Peptide exchange entry is on record as ““++++” (>75% = ++++)”.

The target of another assay is HLA-A*24:02 (Homo sapiens, UniProt P04439, D101N/D140Y/D185E/E176V/E190D/F33S/G103R/G107R/I119L/I121M/I306V/K335N/L105A/L180Q/L300P/N151K/N90K/Q86E/Q94H/R106L/R138H/R89G/T104I/T345S/V100E/W191G/Y123F). Kind of assay: MHC binding assay, UV-ligand exchange with β2m ELISA, HLA-A*24:02. Particulars: peptide exchange yield.
Excerpt: as §1, §2
(In general: In an ELISA, binding on a coated surface is turned into a signal by an enzyme label.)
As to “55 (IFVARLYYF; listed as Homo sapiens) [compound 55]”, the Peptide exchange result is ““++++” (>75% = ++++)”. The same measure, in the same setting: the same measure for “58 (KYLADLPTL; listed as Homo sapiens) [compound 58]”: ““++++” (>75% = ++++)”; for “222 (RYLDEINLL; listed as Homo sapiens) [compound 222]”: ““+++” (>50 = +++)”. On to “63 (IYFSNTHFF; listed as Homo sapiens) [compound 63]”, for which the Peptide exchange entry is ““+++” (>50 = +++)”. For “62 (YYLSHLERI; listed as Homo sapiens) [compound 62]”, the Peptide exchange entry is reported as ““++++” (>75% = ++++)”.

Regarding “70 (LYSDIGHLL; listed as Homo sapiens) [compound 70]”, the Peptide exchange result is ““+++” (>50 = +++)”. Turning to “56 (KYSSGFRNI; listed as Homo sapiens) [compound 56]”, the Peptide exchange result was ““+++” (>50 = +++)”. On to “73 (TYPQLEGFKF; listed as Homo sapiens) [compound 73]”, for which the Peptide exchange entry is on record as ““++++” (>75% = ++++)”.

Take “57 (RFPPTPPLF; listed as Homo sapiens) [compound 57]”: the Peptide exchange result was ““++++” (>75% = ++++)”.

On to “72 (TYVENLRLL; listed as Homo sapiens) [compound 72]”, for which the Peptide exchange result is reported as ““+++” (>50 = +++)”. Regarding “69 (EYNTIKDKF; listed as Homo sapiens) [compound 69]”, the Peptide exchange result was ““+++” (>50 = +++)”. Take “61 (IFKEHNFSF; listed as Homo sapiens) [compound 61]”: the Peptide exchange result is given as ““++++” (>75% = ++++)”. Consider “67 (VFLPSEGFNF; listed as Homo sapiens) [compound 67]”, for which the Peptide exchange entry is reported as ““+++” (>50 = +++)”. Still for that read-out and setting: the same measure for “64 (SFQSKATVF; listed as Homo sapiens) [compound 64]”: ““++” (>20% = ++)”. Still for that read-out and setting: the value for “53 (KYIEYYLVL; listed as Homo sapiens) [compound 53]” was ““++++” (>75% = ++++)”; that for “68 (LYQDRFDYL; listed as Homo sapiens) [compound 68]” was ““++++” (>75% = ++++)”; that for “71 (RYLGKNWSF; listed as Homo sapiens) [compound 71]” was ““++++” (>75% = ++++)”. “74 (SYADNILSF; listed as Homo sapiens) [compound 74]”: the Peptide exchange entry is recorded as ““++++” (>75% = ++++)”.

Take “75 (RFYLLTEHF; listed as Homo sapiens) [compound 75]”: the Peptide exchange result was ““+++” (>50 = +++)”.
